The assay relates to HSV-1. Briefly: HSV-1-GFP infection of CHO-K1 cells transfected with human PILR, ratio of infected cells by flow cytometry. The assay is classed as cell-based. The conditions noted are these: various concentrations, FIG. 3. Here is the method: CHO-K1 cells were transiently transfected in a 10% FCS-containing F-12 culture medium using Lipofectamine 2000 (produced by Invitrogen) or GeneJuice (produced by Novagen). 1 day after the transfection, the 10% FCS-containing F-12 culture medium was replaced with a 1% FCS-containing F-12 culture medium. 2 days after the transfection, the transfectant was mixed with HSV-GFP and centrifuged at 32° C. at 2500 rpm for 2 hours. Thus, the transfectant was infected with HSV-GFP.
Human PILR was transiently transfected to the CHO-K1 cells by using pMx-IRES-DsRed expression vector, and the CHO-K1 cells were caused to be infected with HSV-1 by using HSV-1-GFP in the presence of anti-human PILR mAb with various concentrations or control mAb. The ratio of HSV-1-infected cells was analyzed by flow cytometry.
The CHO-K1 cells to which PILR had been transfected were caused to be infected with HSV-1 in the presence of PILR-Ig with various concentrations or Ig-fused protein without PILR that was a control. The ratio of the infected cells was analyzed by flow cytometry. Since PILR-Ig directly binds to gB of HSV-1, it is considered that there is a possibility that PILR-Ig blocks interaction between HSV-1 and PILR on the surface of a cell.
For orientation: In flow cytometry, cells or beads pass a laser one at a time.

B1: control Ig-fused protein: Ig-fused protein without PILR used as control; purified human CD200-Ig fusion protein (protein)
chain: QVQVVTQDEREQLYTPASLKCSLQNAQEALIVTWQKKKAVSPENMVTFSENHGVVIQPAYKDKINITQLGLQNSTITFWNITLEDEGCYMCLFNTFGFGKISGTACLTVYVQPIVSLHYKFSEDHLNITCSATARPAPMVFWKVPRSGIENSTVTLSHPNGTTSVTSILHIKDPKNQVGKEVICQVLHLGTVTDFKQTVNKG
modifications: left off: a dimerising Fc or GST
Regarding B1, the “blocking of HSV-1 infection of PILR-transfected CHO-K1 cells” value is recorded as “not blocked”.

The values are drawn from US20100129347A1, “HERPES VIRUS INFECTION INHIBITOR, METHOD FOR INHIBITING INFECTION WITH HERPES VIRUS, AND USE THEREOF” (Osaka University, priority 2007, published 2010).
